Publication PMC10511717

Molecular target: RANKL of the osteoclast differentiation medium (UniProt O35235)
Sequence of UniProt O35235 (O35235 whole entry): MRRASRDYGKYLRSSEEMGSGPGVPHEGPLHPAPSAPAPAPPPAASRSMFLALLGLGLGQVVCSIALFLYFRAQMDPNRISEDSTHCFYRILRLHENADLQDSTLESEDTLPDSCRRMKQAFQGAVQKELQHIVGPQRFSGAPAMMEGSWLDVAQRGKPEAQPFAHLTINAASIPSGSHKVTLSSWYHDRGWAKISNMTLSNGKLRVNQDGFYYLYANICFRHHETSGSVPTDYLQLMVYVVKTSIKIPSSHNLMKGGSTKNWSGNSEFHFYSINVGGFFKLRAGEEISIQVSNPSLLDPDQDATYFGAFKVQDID

osteoclast number (TRAP staining after 4 days) in primary murine osteoclast culture differentiated with M-CSF and RANKL; OMD at 10 and 40 ng/mL preincubated with RANKL and M-CSF (% reduction of osteoclast number): 50
B1: recombinant mouse OMD (natural protein)
chain: QYEAYRWDDDYDQEPNEDYDPEFQFHQNIEYGVPFYNNILGCAKECFCPTNFPTSMYCDNRKLKTIPIIPMHIQQLNLQFNDIEAVTANSFINATHLKEINLSHNKIKSQKIDYGVFAKLSNLQQLHLEHNNLEEFPFPLPKSLERLLLGYNEISILPTNAMDGLVNVTMLDLCYNHLSDSMLKEKTLSKMEKLMQLNLCNNRLESMPLGLPSSLMYLSLENNSISSIPDNYFDKLPKLHALRISHNKLEDIPYDIFNLSNLIELNVGHNKLKQAFYIPRNLEHLYLQNNEIESINVTMICPSPDPVHHHHLTYLRVDQNKLKEPISSYIFFCFPRIHSIYYGEQRSTNGETIQLKTQVFRSYQEEEEEDDHDSQDNTLEGQEVSDEHYNSHYYEMQEWQDTI
